Laboratory results from the DeepSol protein solubility set.

assay: soluble on expression in E. coli; label from the status in PepcDB or PDB records

| Sequence | soluble on expression in E. coli |
| --- | --- |
| MKMISTIQKKETVMVAPIPAKRGRKPAVATAPATGQVQSLTRGLKLLEWIAESNGSVALTELAQQAGLPNSTTHRLLTTMQQQGFVRQVGELGHWAIGAHAFMVGSSFLQSRNLLAIVHPILRNLMEESGETVNMAVLDQSDHEAIIIDQVQCTHLMRMSAPIGGKLPMHASGAGKAFLAQLSEEQVTKLLHRKGLHAYTHATLVSPVHLKEDLAQTRKRGYSFDDEEHALGLRCLAACIFDEHREPFAAISISGPISRITDDRVTEFGAMVIKAAKEVTLAYGGMR | soluble |
| SVDDSKYQCVKLNDGHFMPVLGFGTYAPAEVPKSKALEAVKLAIEAGFHHIDSAHVYNNEEQVGLAIRSKIADGSVKREDIFYTSKLWSNSHRPELVRPALERSLKNLQLDYVDLYLIHFPVSVKPGEEVIPKDENGKILFDTVDLCATWEAMEKCKDAGLAKSIGVSNFNHRLLEMILNKPGLKYKPVCNQVECHPYFNQRKLLDFCKSKDIVLVAYSALGSHREEPWVDPNSPVLLEDPVLCALAKKHKRTPALIALRYQLQRGVVVLAKSYNEQRIRQNVQVFEFQLTSEEMKAIDGLNRNVRYLTLDIFAGPPNYPFSDEY | soluble |
| MEATNKMKVEVWSDIMCPFCYIGKRNYEAGLKQFADSNNIEIIWKSFQLDPNIPQDTAVTENVYQYLAERKGMSYEQSVQMHDSVVATAKKAGLDYNFDKAVIANSFNAHRMIQLAKTKDLGDAAEERLFYAYFTEGKNVGNSYVLIELGKDIGLTEAEVQTALTDDTYAYKVRQDVEEAQHLGVRGVPFFVFDRKYAVSGAQPPQAFLETLEKSFSEWRKEHPASPFEVSEGPSCSVDGCD | not soluble |
| MGSDKIHHHHHHACDGILEGIYDSPAASDSNELGFIRTDPSTHSGTIYIDATDYRRWTFIDFHTQKVDSVNVTDSEQKEPEEWDIAVHRYDVKTNAGAVLETGFTGFSALRNADAMPEGAYVEDVWTTAKIAIDMSGMMDGNIVYMESYYNEELSKWLNVDKSNMPPTYTLSNKVYMVKLKDGTYAAVRLTNYMNASGVKGFMTIDYIYPFEL | not soluble |
| MRYNEKELQALSRQPAEMAAELGMRGPKKGSVLKRRLVKLVVNFLFYFRTDEAEPVGALLLERCRVVREEPGTFSISFIEDPERKYHFECSSEEQCQEWMEALRRASYEFMRRSLIFYRNEIRKVTGKDPLEQFGISEEARFQLSGLQA | soluble |
| MKIALIGASGYVGSALLKEALSRGHHVTALVSRPERIAAQANLAAAKVDVQDSAQLAEQLKGFDAVLSAFSGHAQAEQFDYFVKGIRSIIAAAKAAQAPRLLVVGGAGSLEVAPGVQLVDTPEFPEQWKASALGAREALNLLRAETELNWTLLSPSAMLQPGQRTGQFRLGKDQLLVDAEGNSHISVEDYAVAMIDELEKGLEHHHHHH | not soluble |
| MGSDKIHHHHHHMWFCFLKSGFIIIKQILSTPFFSYKYNIKILINFKLISNIIEHKMLEYANKITLKGDNIMKFAVITDIHGNFDALQTVLDDIDSRDDIEKIYNLGDNIGIGHETNKVLDTIFDRDDMEMIAGNHDEAIMSLVNGTPYPEDLKGKFYEHHQWIEGHLDESYYDEINQLPRYIEMTIKGKKILFIHYEIENDKMSAPIDEQPFAPITKDDEQAISELFKDKEADLILFGHNHRLHMFDDKSTVYFNPGSVGLNNGSNTVYGIITVNEKGISVERVKLAYNNEEFLAGFEEKQVPAREFIFKNFI | not soluble |
| MSLAKPFDAYISVTVKARGNGTVHLGPIHKRWSRLDMGQFLLGGSRFVDSQRQEFIYYFHPGDMKPPLNVYFSGYRTAEGFEGYYMMKRMNAPFLLIGDPRVEGGSFYIGSSEYEQGIINVIDETLEKLNFKSHELILSGLSMGSFGALYYGAQLNPQAIIVGKPLVNIGTIAEHMRLLRPEEFGTALDVLVSNEGDTSQASIQALNQKFWQTFQKKSLSQTVFAIAYMQHDDYDPHAFQELLPVLTAHQARVMNRSIPGRHNDDSEGHHHHHH | not soluble |
| MDTSKIVGEKIKALREDKSISIEELAQRSGLAIEQIERIENNIDIPSLAPLIKIARVLGVRLGTFLDDQDEIGPVVCRKKEAKDAISFSNNAIHSRKHMEYHSLSKSKADRHMEPFIIDVMPTEDSDFVLSSHEGEEFIMVMEGVMEISYGKNTYLLEEGDSIYYDSIVPHHVHAYEGQAAKILAVVYTPI | not soluble |
| MSLKFVGIVGSNAEQSYNRMLLEFIRKNFKTKFELEVLEIDDIPMFNQDQNWEESFQLRLLNNKITRADGVIIATPEHNHTITAALKSVLEWLSFAVHPLENKPVMIVGASYYDQGTSRAQIHLRKILDAPGVNAYTLPGNEFLLGKAKEAFDDNGNIINPGTVQFLETCLDNFIKYVGVVSSLRKPKAIESEDLYCQGQIDTTITGIDPDDPDWLDKAAEKVNAVEGDAYVKLDNGLLTVNQLNMFLNAMPFELTYADDNNQFLYYNNNHPDPDTMLGKRVREQVGNRMATVHGSLPPARMKNVEWVIGTLRNGNQEYVRTVVPGTPPEVINTHNYQAMYYPDGSYAGINEIIFNFKPWLDWYLQTTGQRLVGGTTAAPGASAVDATSSASTSTGDAPVDQATDATSGASEHEGHHHHHH | soluble |
| MAHHHHHHMFHRHSFYEKGSSAPRDGAGAGADGTQAHGGAAGGSCNNGGTSSSSTASSQQQREQDERLYGMGSATAQQRRQVRQQWEKSFFGRLHYEEGMHDRFSEALKSEDAEAFRQSIAGQSHADLFPHWPEEEEAPLSEFKRLRPSLQLHYIVNRLSSGERRIRYSVDFGGLLMMPQLNLGEMMVKEADTLLRELGWMNDEVAMRIEEVQALASKIKFDFDLD | soluble |
| MNPIQHILDTYPLIVLDGAMATELERKGCNLNDSLWSAKILMEEPELIKQVHTDYFAAGADCAITASYQSTFEGFAARGLSEAEARRLIELSVSIAAEARDEFWSLEENRLNRPKPIIAASIGPYGAYLADGSEYRGNYAISEDELIEFHRPRMKALIEAGADVLACETIPCLTEAKAIVRLLKEFPETYAWISFSAKDGLHISDGTPAADCASWLDEHRQIAALGINCTPLQHIPSLIEELKKNTSKPIIVYPNSGEQYDPETKTWNGAACAESYGASARTWHEKGARLIGGCCRTKPENIQEIAAWARSLKTT | soluble |
| MSLQDTWGGKMNTLGDRVLLCNDKRSLPAAAVATPFLFESMLFSVCTRGYARLLIDSREIEVKEGELLVVMPRKTIEVIESSCFRAFHLCLDKEILALSAIRISGFISIINKLHSNEPFRPERMEKDFLTATLDLIRNALQNGGRHQEEIVIYLISSLFLFLDDMIADEVEKDCKHTRSETICRDFLLLVSEHHKEQHTVKFYADRLCLSSKHLALTIKTVMGQSASKVINSFIIQQAKSLLRYTDKTVQEIGYELNFSTQSFFGKYFKQHTGMSPGEYRSQEARNRQSEES | not soluble |
| GPLGSYGDAIPEVKAILEAKNEEELVTFTSRWSAEERKELRTQFQDTTGLEFIAFLKKCIKNGPYEDVMALGWDCNISARVNVIKKAMKNVNDFRAIHDVVLIATPDERLKLAQAYKEKTGNDLLQDFVDQIPLTSAASYLCHLAIRENRTPRGSVASDAEVLKHNLIDADEPDHEAVVRLIITSTADEYKEINHRFEVLTGKSVQEAIETRYADKENARGLCIAHYYNLAPARAVAYAFHSAVETQNDDMAYEQAARITGLFHDLHKFAWVHYACWGVMRDDILSRFQSKEANKVNFRDACLMFWKLAK | soluble |
| HRYGDEIDALVEAFNRMRESLAVAYQQQQGMLQAVRESEALLRAIARRIPNGGVWVVDTDGRYIMFEGSLVESLGLSGQEALGRMPGDLFGEPLADRLVGCYRLALAGGTLSEEIEYRERVLWIQFAPLEDEHGAVMAAVALGID | not soluble |
| KEMRQQVPATIKGPTEEYEYYMELMALLNNLLETARSRGFKFLDSHIEAPEQSSIFLMYPLVSEDHRLISFITDNLRLMAMGQMSPHELEGLLEQEIEAIQNELLLPSRSLQRTAE | not soluble |
| MGSDKIHHHHHHMTFIDSPLSQTIALAGGDLHVAVARSDLPLGALCGFASRRNPKRPFLFVSKVLGRHLPVRPQVMRMVHRRLAAKLPANLPGPVVAIGMAETAICLGQGVFEAWRGGSGREDGLFIHSTRYRLRQGLLSTFEESHSHATSHLIHQPAAALDRALCAACRTLVLVDDEASTGATFVALVEANRAAMPNLARIVCVTITDWMGAAKRAEITAAMPVPTTFVSLLEGGYTFEARTVTPPAMPNVTGDGAFKDDLIPVNWGRLGLRRPRPLPAAALAIRAKAGERVLVLGTGEFVFPPFQLARRLSAMGADVRVQATTRSPILEGGDIDGVIDFADAYGDGIPNFLYSTRPGDYDRVLVCYETPPSTAQTALIAALGAEPVFFNAIGGPRT | not soluble |
| MLDANKLQQAVDQAYTQFHSLNGGQNADYIPFLANVPGQLAAVAIVTCDGNVYSAGDSDYRFALESISKVCTLALALEDVGPQAVQDKIGADPTGLPFNSVIALELHGGKPLSPLVNAGAIATTSLINAENVEQRWQRILHIQQQLAGEQVALSDEVNQSEQTTNFHNRAIAWLLYSAGYLYCDAMEACDVYTRQCSTLLNTIELATLGATLAAGGVNPLTHKRVLQADNVPYILAEMMMEGLYGRSGDWAYRVGLPGKSGVGGGILAVVPGVMGIAAFSPPLDEDGNSVRGQKMVASVAKQLGYNVFKG | soluble |
| MFDKLKENEELWDLFTRKEEYSVTFRDAYERFPYYLSSHRNIFEPRVSKFLVENGLKPQYPDGKKFAVCLTHDIDAIYPDKLYPIVGPVKALSRGKLAEAVKAPFSRVNRKWNPCWNFREILALEAKYNAKSSFYFLALTSEETDFNYNIKDLETELGFISDSGWEVGLHGGHESYNSLEDIKEKKRRLEEVLGKKVVGYRNHYLRFRVPDTWELLSKAGFKYDTTFGYSDCAGFRNGMCHPYRPFNLNEGRQIDILEIPLVIMDRSLLKDYMRLNVKKAWECTKHLINTVEKYNGVITILWHNNMCIDGENLRYYEKVLEYCAEKNAWITSGEEIYNWWTSKIEPGNLEHHHHHH | not soluble |
| MCGLLGMLSSTGQASKYAAAIESALPCMHHRGPDEAGTWHDDHAVFGFNRLSIIDLEHSHQPLRWGPEGEPDRYAMTFNGEIYNYVELRKKLQDLGYTFNTSGDGETIAVGFHHWGADVVLHLRGMFGIAIWDTKEQRLFLARDQFGIKPLYFATTEAGTVFASEKKCILGMADAIGLDLGLDQRAIEHYIDLQYVPEPESLHQHIRRLESGCFAFVSVGGNVEQTRYFRPQFPAQEF | not soluble |
| MAATRAYHHGDLRRSVLSAALEVIRSDGVAAISLRDLARRAEVSHAAPAHHFKDKAGLLTAIATEGFELLAAALTAVPAGTTHRLREMGVRYVEFALDHPAHFDVMFRPQLLHVGDPELTAARERASRALASGVEDLPDMRAGLDARRAGLTAWSLAHGFATLQLGGSLPPLDDDPAEAFRALVADRLVVRLP | not soluble |
| GRPYKLLNGIKLGVYIPQEWHDRLMEIAKEKNLTLSDVCRLAIKEYLDNHDKQKK | soluble |
| MVEYVNQAHEDITGIARDKSIGTNLRDLTFFRQHNALAEQTLAKIFRGDQAKGEVQFSRTDGSRYWLKYIVSQFITDRGNHYALVSGEENSDEHNYKAELEHHHHHH | not soluble |
| HHHHHHDYDIPTTENLYFQGAITLLTLIKTAEHWARQDIRTIEDSKLRALLTLCAVMTRKFSKSQLSLLCETHLRREGLGQDQAEPVLEVYQRLHSDKGGSFEAALWQQWDRQSLIMFITAFLNIALQLPCESSAVVVSGLRTLVPQSDNEE | soluble |
| MSKQTAIRLPDETYERLKALSERTGRTSAYYIREAIEKHIEDMEDLYLAEEATRRIQRGESKIISAEEFWRDLDN | not soluble |
| PGSMTVTQSQLELLIRNAFPEAEITVTSLVGDNNHYSIKVISSQFQGKSKLEQHRMIYKVLDGLNIHAIQIQTGCK | soluble |
